Data from article PMC5543128.

B1: A4 (ssDNA)
DNA: GCCTGTTGTGAGCCTCCTGTCGAAAATGCTGTTGTTTGAGTATCAATCAGACCGTTGAGCGTTTATTCTTGTCTCCC
B2: D3 (ssDNA)
DNA: GCCTGTTGTGAGCCTCCTGTCGAAATCGGTCGTATAGGGTCGATTTGGTCGGCATTGAGCGTTTATTCTTGTCTCCC
B3: B4 (ssDNA)
DNA: GCCTGTTGTGAGCCTCCTGTCGAATACGCACATACTGTGTACCTTGAATTTATATTGAGCGTTTATTCTTGTCTCCC
B4: A5 (ssDNA)
DNA: GCCTGTTGTGAGCCTCCTGTCGAAGTGCAGGTCTATACAGGACAGTCTTCTGATTTGAGCGTTTATTCTTGTCTCCC
B5: D7 (ssDNA)
DNA: GCCTGTTGTGAGCCTCCTGTCGAATGCAGCATGGGGGATGTGCTCTTCCGCGTGTTGAGCGTTTATTCTTGTCTCCC
B6: 5'-biotin B4 (ssDNA)
DNA: B3 DNA

target: FAM-αC-conotoxin PrXA (Conus parius, UniProt P0C8S5 52-83); assay: fluorescence anisotropy; settings: tags: 5,6-carboxyfluorescein (FAM)
Sequence (P0C8S5 52-83): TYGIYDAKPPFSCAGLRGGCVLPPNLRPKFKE

Binder	Kd
B1	246 ± 66.6 nM
B2	122 ± 25.3 nM
B3	120 ± 21.3 nM
B4	184 ± 69.7 nM
B5	238 ± 30.6 nM

target: αC-conotoxin PrXA (Conus parius, UniProt P0C8S5 52-83); assay: SPR; settings: tags: none; label: 5' biotin
Sequence (P0C8S5 52-83): as above

Binder	Kd
B6	329 nM
